Test [1] concerns the target T1, mutated human CRTH2 with amino acid substitution (Homo sapiens, UniProt Q9Y5Y4, D196A/T198A).
T1 construct: inserting genes encoding various mutants with amino acid substitution obtained by deleting termination codons; expressed in transfected cells; host or cells: CHO-S cells (Lifetechnologies), transient (phmAG1-MNLinker vector)
T1 sequence (Q9Y5Y4 1-395 D196A/T198A): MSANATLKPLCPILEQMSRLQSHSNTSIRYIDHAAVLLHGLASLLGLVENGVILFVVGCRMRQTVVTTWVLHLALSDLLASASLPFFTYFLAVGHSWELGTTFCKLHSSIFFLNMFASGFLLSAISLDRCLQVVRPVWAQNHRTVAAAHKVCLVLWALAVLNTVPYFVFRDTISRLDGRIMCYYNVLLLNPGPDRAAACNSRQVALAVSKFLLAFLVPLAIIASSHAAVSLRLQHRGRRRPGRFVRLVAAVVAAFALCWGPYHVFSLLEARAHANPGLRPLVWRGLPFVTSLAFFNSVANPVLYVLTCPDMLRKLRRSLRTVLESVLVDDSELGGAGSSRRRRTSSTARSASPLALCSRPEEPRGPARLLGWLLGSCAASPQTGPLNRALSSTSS
Briefly: Epitope analysis using CHO-S cells which express mutated human CRTH2 with amino acid substitution. It is filed as binding. The conditions noted are these: mutant D196A and T198A; antibody 10 μg/mL; relative to wild-type = 100%. In a few lines: (§1)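 CHO-S cells transiently expressing alanine-substituted human CRTH2 extracellular mutants, C-terminally Azami-Green tagged, 24 h post-transfection. Antibodies at 10 μg/mL, 4 °C 1 h, then Alexa647 anti-IgG secondary 4 °C 1 h; flow cytometry on Azami-Green-positive cells. Reactivity = Alexa647 intensity divided by Azami-Green intensity.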

Test [2] deals with T2, mutated human CRTH2 with amino acid substitution (Homo sapiens, UniProt Q9Y5Y4, E15A/L14A/P12A).
T2 construct: inserting genes encoding various mutants with amino acid substitution obtained by deleting termination codons; expressed in transfected cells; host or cells: CHO-S cells (Lifetechnologies), transient (phmAG1-MNLinker vector)
T2 sequence (Q9Y5Y4 1-395 P12A/L14A/E15A): T1 sequence (Q9Y5Y4 1-395 D196A/T198A) with P12A, L14A, E15A, A196D, A198T
Described as above. The conditions noted are these: mutant P12A, L14A, and E15A; antibody 10 μg/mL; relative to wild-type = 100%. It is filed as binding. A digest of the protocol:
as §1

Where a chain is given by its changes, count along the chain named.

B1: LV0HV1: humanized Lym2 antibody, VL LV0 (SEQ ID NO: 33), VH HV1 (SEQ ID NO: 51) (antibody, V domains shown)
VH: EVQLVESGGGVVQPGRSLRLSCAASGFTFSNYYMAWVRQAPGKGLEWVATISYDGSSTYYRDSVKGRFTISRDNAKNSLYLQMNSLRAEDTATYYCARHRGYYYSGAGYFDYWGQGTMVTVSS
VL: DIVMTQTPLSLPVTPGESASISCRSSQSLEYSDGYTYLEWYLQKPGQSPQVLIYGVSNRFSGVPDRFSGSGSGTDFTLKISRVEAEDVGVYYCFQATHDPLTFGQGTKLEIK
In the case of B1, the “reactivity against cells expressing mutated human CRTH2” value in test [1] and in test [2] was “lost” each time.
